Consider 15 sequences from a protein production outcome set (Wang et al. 2014).

This data set is described as follows: label from the status in PepcDB records.
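Note: failed if final PepcDB status was selected cloned or expressed and not failed if soluble or beyond.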

Regarding “MCGLAGWVDYTRKLDDEFPAIFAMTDTLALRGPDAEGIWKHRNALLGHRRLAVIDLSGGVQPMSYRFPTGQEVTLVYTGEVYNHDALRERLRRAGHEFRTRSDTEVVLHAYLQWGERCCEYLTGMFAFAVFDGRDGHLLLVRDRLGIKPLYYARHREGLLFGSEIKSILAHPEFAARLDAVGLVDLLTLSRGTSQTPFREVQELLPGHLLSWRPNSQAKLRRYWEVRRQEHADDLQSTVQRTRELVTRALGAQLHADVPVCSLLSGGLDSTALTGIAQRIAKAEHGGDINSFSVDFVGQAEQFRSDDLRPDQDQPFALLAAQYIGSRHRTVLIDNAELVCERAREEVFRAKDVPFTFGDMDTSLHLMFGEIRRHSTVAISGEGADELFGGYGWFRDPQAVAAARFPWASRVRLPAGFIDAGFNRRCDLLQYQQASYDDGLRQVEHLAGDSPEERRMREFSHLHLKRWMVLLLERKDRLSMCNGLEVRVPYTDHELVEYVYNVPWSIKSRDGEEKWLLKRACADYVPEAVLKRRKSPYPTSANLGYERFLRGSVRRLLEDAVNPVFGIVSREFLAAELEHPEGYFNTQVSRHNLETALALEGWLRLYGLS”, the protein production result is reported as “failed”. As to “MCGTRSSAQTSKTSLCALLLSAAMSLVLAAPASAAADCIAGSKAAPAELITSCSAIIDQAANSSSDRAAALLVRADANARTSGGLTQALRDIDRAIALDGKNAKAWRLRGDLLREAGGDLNRAAADLSKAIELDPQDAESYELRGVVYTSQRRLDRALADYDQAIKLKPGDAQAWSDRGVTYYLGGDNEKAIRDLSEALRLDPNRPRTYTNRGAAYKKLGQLDKSVADAAEAIRLDPKVPEYYDNRGLSLAAMGDYDKAIADYDQALRLAPKPNFFTNRGDSYQFKGEFGAALSDYESALKLDPNFAQTYNNRAVLYKKMGERRKALADYETALKLDPGNDNAANGRRTMIAEIAKFGDEPRRPLAANSGNGPSFDCATAKREVEKVICADPELGVLDRQIAETYERVLKSANRRSAGDLRRTQRDFLATRNSSFGRPGYDLRKVMQERLQRLNAMEG”, the protein production result is “failed”. Turning to “MCIAIPGKMTAIVDENTATIDMGGICRDVNMALMGGAEESMIGKHFLVHVGYAISEISEEESEETMRLLKIMAGLEEIDSFENESQ”, the protein production result was “failed”. Take “MCLAIPSVVIDIFEEDGEKYALAEYKGVKQKAKLALIEGVEIGDYVLIHTGYALEKMSEDEAKLSLDAWEELFDVLDEM”: the protein production result is “failed”. The same measure for “MCNDTATPQLEELVTTVANQLMTVDAATSAEVSQRVLAYLVEQLGVDVSFLRHNDRDRRATRLVAEWPPRLNIPDPDPLRLIYFADADPVFALCEHAKEPLVFRPEPATEDYQRLIEEARGVPVTSAAAVPLVSGEITTGLLGFIKFGDRKWHEAELNALMTIATLFAQVQARVAAEARLRYLADHDDLTGLHNRRALLQHLDQRLAPGQPGPVAALFLDLDRLKAINDYLGHAAGDQFIHVFAQRIGDALVGESLIARLGGDEFVLIPASPMSADAAQPLAERLRDQLKDHVAIGGEVLTRTVSIGVASGTPGQHTPSDLLRRADQAALAAKHAGGDSVAIFTADMSVSGELRNDIELHLRRGIESDALRLVYLPEVDLRTGDIVGTEALVRWQHPTRGLLAPGCFIPVAESINLAGELDRWVLRRACNEFSEWQSAGLGHDALLRINVSAGQLVTGGFVDFVADTIGQHGLDASSVCLEITENVVVQDLHTARATLARLKEVGVHIAIDDFGTGYSAISLLQTLPIDTLKIDKTFVRQLGTNTSDLVIVRGIMTLAEGFQLDVVAEGVETEAAARILLDQRCYRAQGFLFSRPVPGEAMRHMLSARRLPPTCIPATDPALS”: “failed”; for “MCRKRYKKQNLGVSKNMLEGHENKVSGVYEKNRSAGYEKEILKPKNVWEEFFADKRSGGHRSSAEEFLAMEAKEKLFHLDGGKILLDFGCGAGELLVYYAQEYEKTIGVDFSPSMLEEASKRIRERNCKNTTLILADDKIVWDKLDSSFDRITAAGVFQYLTYQKIDDFIFNASKHLNEGGKIVLFDMLDPRLYPLWKMGLFSQDKSCRKILSKAVCGVKNSISASLKRRPRDILGYSHYPNKIKKIANKNGFEMICVQSMYYEYKYHAIIFRS”: “failed”. Take “MCSIGVTALCSPAKFHHRREQSLIFTPTHLRNPNGFQFRWRKSRPFAPRLAQPDNFAPPLPLIRSSTSLLSSKDFVQMLARKAAILLVGSFVFLGFCSSKPALALPTATVVSQAELEDEKMFEKLLENEPENMEAMKAVVYKKMRRGKNEDAVKYVEKLMKLEPHEVEWKLLEALCYETMGELSKAKRLYKDILKEQPLLIRALHGLAMVMHKTHDTSVFDMLIEAMEVARQGNRVTEERNIQVLIGQMHIVEGQFEEGLKIFQQMVNDNPRDFRPYLCQGIVYSLMDKKEEAAQQFEIYWSLVPGEFPQKGFLDDVALAAQAKSRERLQNTFKAKFTQGR”: the protein production entry is “failed”. In the case of “MCTKNETKPLPSFIEERLNFHIQDLIKSNENQKHLVLGKRPSENAVVMQSNDYLSLSHNELIQKAHRDAISERDDNVVMSAIFLQDDQSKPAFEHQLATFVGMESCLLSQSGWAANIGLLQTICAPNLPVYIDFFAHMSLWEGARTAGAQIHPFMHNNMNHLRKQIQRHGAGIIVVDSVYSTIGTIAPLRAIYEMAKEFDCGLVVDESHSLGTHGPEGSGLLQKLGLTQMVDFVTVSLAKTFAYRAGAILGPNKLAQSLPFVAYPAIFSSTVLPQEVVRLEKTLEVIKAADDKRECLFKRAKELAIGLKRIGFNIRSESQIIALECGSERNTERVRDFLEERDVFGAVFCRPATGRNKNIIRFSVNADMTAQQVDHVLSACQEAFDHPDLEFV”, the protein production entry is listed as “not failed”. Take “MCTPAADTRRGSPALASTARRGLLPARRNGPSARRGEALRSSTGRFVCWCRRRTASVDPSGFMPASFSIAGRLVDLHARAIRPATVHVQDGVIARIEPAETVPERHLLPGFIDAHVHVESAMLPPSEFARAAVRHGTVGTVSDPHEIANVLGVEGVEYMIADGRPVPFHFAFGAPSCVPATPFETSGAELGPDAVSALLDRDDVPYLSEMMDYPGAIDGAPNVLAKIRAAQVRDKPVDGHAPGLRGDDVAQYAAAGIETDHECVSIEEAREKLEAGMKIAIREGSAAKNFDELIPLMDEAPDRLMFCSDDRHPDALAEGHIDTLVRRALNRGYDRFDVLRAACVHPVEHYGLDVGLLREGDPADFIVVDDLDALNVQETYVEGALVAEEGETHIEHVASDVVNRFDAEPVAPADFRVPAGGDRLRVITAVDNQLGTGEEVVTTPTDDGYAVADPDRDVLKLAVVNRYTEESTPAVAFVRGFGLDGGALASSVAHDSHNVVAVGARDDALARAVNAVVRAEGGISAAAEGTQVLPLPIAGLMSDEPYDVVARRYTRLTDYVRAELGSAMDAPFMTLSFLSLLVIPQLKLSDRGLFDGAAFEFVDRFVD”: the protein production result is reported as “failed”. Consider “MCYASMEMSAPIRFGTEGFRGVIAREFTFATLHRLAEAYGRHLLERGGGLVVVGHDTRFLADAFARALSGHLAGMGLKVVLLKGPVPTPLLSFAVRHLKAAGGAMLTASHNPPQYLGVKFKDATGGPIAQEEAKAIEALVPEEARALEGAYETLDLREAYFEALKAHLDLKALSGFSGVLYHDSMGGAGAGFLKGFLRHVGLEIPVRPIREEPHPLFHGVNPEPIPKNLGVTLAVLGPETPPSFAVATDGDADRVGVVLPGGVFFNPHQVLTTLALYRFRKGHRGRAVKNFAVTWLLDRLGERLGFGVTTTPVGFKWIKEEFLKGDCFIGGEESGGVGYPEHLPERDGILTSLLLLESVAATGKDLAEQFKEVEALTGLTHAYDRLDLPLKAPLDLTPFREPRPLAGLTPKGVDTLDGVKWLYEEAWVLFRASGTEPVVRIYVEAQSPELVRALLEEARKLVEG”, for which the protein production entry is listed as “not failed”. As for “MDAAHRHGVPVLGNIFLPPVAYGGQLQWTRDLVQKDATGHYPLAAQLVAVADAYGFDGWFVNAETSGGNTALATDMRGFLQELKALGTAKGQRVTWYDSMTATGSVSWQGALNSQNQAFFQAADSMFVDFRWSKSTLASSGTLAGQLGRSRYELWAGVDVESNGTSTSVNWDAIVPSASAHVVSLGFYRPEWTRNHLPANRTPGDFHAADDLFWTGASLDPAKPNTTASWRAPALRVADRSTVDSLPFATVFNTGHGLKWYEGGEVTSDTAWNHLGLQDRLPSRRWIVRTSGARPSVTFDFADAWRGGSSVLVAGTLGAPATLDLYETRLPVGSSETVVELTHRTDAGSAQIELAVATAEPSAPGQAPSYTYFPVSSGDGWGTSTVRLTGLSGTVRTLAVRLTGSGSPVRWRLGALAVKNAPAEPAAPTGLRVTDADGGSLRFSWQPAAGEVRHYELHRVLADGTRRFLGGTCQCAYYVAGLAAEQGESAARFELRAVGELYTESTATTTTHPW”, the entry is “failed”; as for “MDAKEVSAHWESNAETWTMLSRAGHDRYRDTLNTPAFLAMLPPVAGLKGLDLGCGEGTNTRTVARLGASMTGLDIAPTFLRHARDAERRDPLGIDYVLGDGLTLPFADRSFDFVTAFMSMMDMVDQAAVLREVARVLKPGGFLQFSILHPCFVPPTRRNIRDAEGAPVAVEVADYFDESDGRVERWLFSSISAEQQAALTPFAVPRFHRTLSTWVAMIVGARLSIEAFGEPRASEEVAAAEPIVADTRVAPIFLHVLAKRPTTP”, “failed”; as for “MDAMKYHDLRDFLTLLEQQGELKRITLPVDPHLEITEIADRTLRAGGPALLFENPKGYAMPVLCNLFGTPKRVAMGMGQDDVSALREVGKLLAFLKEPEPPKGFRDLFDKLPQFKQVLNMPTKRLRGAPCQQKIASGDDVDLTRLPVMTCWPDDAAPLITWGLTVTRGPHKERQNLGIYRQQLIGKNKLIMRWLSHRGGALDFQEWLAARPGERFPVSVALGADPATILGAVTPVPDTLSEYAFAGLLRGTKTEVVKCLSNDLEVPASAEIILEGYIEPGEMAPEGPYGDHTGYYNEVDSFPVFTVTHITQREDAIYHSTYTGRPPDEPAVLGVALNEVFVPILQKQFPEIVDFYLPPEGCSYRLAVVTMKKQYAGHAKRVMMGVWSFLRQFMYTKFVIVCDDDVNARDWNDVIWAITTRMDPARDTVLVENTPIDYLDFASPVSGLGSKMGLDATNKWPGETQREWGRPIVKDPEVTARIDAIWDELAIFKLEHHHHHH”, “not failed”.

In the case of “MDAPGPKPLRVARYWLYTGEHPARTTEVPVWNKLCLSVCCAILVLTASSCGADKSSDFLTEGRKLMDAGNAAGAVVLFRNALEKTPADYTLHLELGRAYIALGKLDLAEGELQKCLRQQPDDPPLNLALGELYVARNEPAKALPHLARYEQGAGETAVSRELAGLAHAQARSPEEARAALERSIALDAKRVTPRLALARLFLYRGDLKRAVATVDEALAVAPEDRLALTLRGDLLLRQGDAPGALVVFRKVASLAPGDDYARYMSGLLALQTGDEAGAAAVAASMNKDFKDNSLTLMLDGALAAQRKDYTLAASLFQRSVAMRPSLEGYYKLGMALYGKGDLETALSQFNRVLEATPEYDAARRMTVTILLAQRRVAEARQEAQKLVERNPSDAAAHFMLASAQMAAGDRAGAERSFEAGLALQPAHVPALLQLSRLKQADGRPDEALEDLKAAVVAAPDDLAVRNALFAYHLGRGDTGKGVQVVLEGLRGTPQDAILYTMLVPVYVNMGDEAKGLDAVAQAHRADPDFPDAYLAGLRLHAGAGRAEQALAESEAYLARKPDAPGFLLASGALLDLLGRTAEADARFDKALAANDPRVSFAVAERAVASGQDEKARRVLEEALRQHDQTTLRDALAIQLARMGKPDDALALYTAIETQRPREALLGRYRLLTHLDRHQEAADTARELGRRESASPLPVLLEAAAFERMGQRPQGVALLEAAHRKSGDPELLLAMGGMLERNGDEARAETCYRDALKARPDHVPTLLAYAGLDMRRKEYAKATALYEKAVSIAPDDVVALNNLAMAYLEKASRDATPQKALRLALQAYTRAPDNPAVLDTLGVCMMANGRADDAARAFGRAVVAVPGNPSLRYRHAEALFKAGRKDMAAEELRAALQTPDFPEAAKARDLLRKTGN”, the protein production result is reported as “failed”. The same measure for “MDATMHLFREKSSIGRLNLARVGLLDCIFGVRLNVEYKKTVEIFDCAGHNHRSGGIRNHRPTNSQGNSHKIKWKNLLLAPYTLVHVLVPPDLNKTCCDCGVYALKYIECHFMGLSLDMLDDVNIKDARLRIAVDLWKAAFDPVFIDRMTKYKPPKINSEIIDINLSVKLLKLNLIDNILEGPLSESITRSKTLLELDNMLEPNCI”: “failed”.
